Assay [1] deals with human CD38 on cells (Daudi cells; CD38^+ Jurkat T cells) (human, UniProt P28907 1-300). As to the kind of experiment: cell-based or functional assay.
Assay [2] concerns the target T1, recombinant human CD38 (Acrobio, ref CD8-H5224) (human, UniProt P28907 43-300).
T1 construct: Bought protein used in Biacore
As to the kind of experiment: SPR, Biacore 3000, CM5 chip, recombinant human CD38. How it is done:
Binding affinity was measured and reported by the equilibrium dissociation constant (KD). Recombinant human CD38 (Acrobio, ref CD8-H5224) dissolved in milliQ water was used.

For the molecule CRDQNFVILEFPVEEQC [looped peptide CRDQNFVILEFPVEEQC (SEQ ID NO: 9), free peptide], the “EC50, glucose uptake (2-NBDG fluorescence), human Daudi cells” value in assay [1] is ~0.1 nM.

Turning to NSRDQNFVILEFPVE [CD31 peptide NSRDQNFVILEFPVE (linear)], in assay [2], the Kd came to 2.3 nM. In assay [1], the “EC50, glucose uptake (2-NBDG fluorescence), human Daudi cells” value was ~13 nM.
